Laboratory results published in patent US20240400715A1.
Numbering of substitutions follows the chain as printed. Blank lines part the entries; values can stand above or below the binder they belong to.

Key:
[1] = biological target: EGFR-CD3 bispecific antibody 401; test: BLI self-interaction: antibody captured on AHQ anti-human Fc sensor, free sites blocked with human IgG, same antibody in solution
[2] = biological target: HER2-CD3 bispecific antibody 504; test: as above

BLI-Response (self-interaction signal) [1]: 0.043 nm
B1: EGFR-CD3 bispecific antibody 401 (bispecific antibody, human IgG4 S228P, kappa, F234A L235A)
heavy: EVKLLESGGGLVQPKGSLKLSCAASGFTFNTYAMNWVRQAPGKGLEWVARIRSKYNNYATYYADSVKDRFTISRDDSQSILYLQMNNLKTEDTAMYYCVRHGNFGNSYVSWFAYWGQGTLVTVSSASTKGPSVFPLAPCSRSTSESTAALGCLVKDYFPEPVTVSWNSGALTSGVHTFPAVLQSSGLYSLSSVVTVPSSSLGTKTYTCNVDHKPSNTKVDKRVESKYGPPCPPCPAPEAAGGPSVFLFPPKPKDTLMISRTPEVTCVVVDVSQEDPEVQFNWYVDGVEVHNAKTKPREEQFNSTYRVVSVLTVLHQDWLNGKEYKCKVSNKGLPSSIEKTISKAKGQPREPQVYTLPPCQEEMTKNQVSLWCLVKGFYPSDIAVEWESNGQPENNYKTTPPVLDSDGSFFLYSRLTVDKSRWQEGNVFSCSVMHEALHNHYTQKSLSLSL
chain: QVQLQESGGGSVQAGGSLKLSCAASGRGFSRYAMGWFRQAPGQDREFVATISWTNSTDYADSVKGRFAISRDNAKNTAYLQMNSLKPEDTAVYYCAADKWASSTRSIDYDYWGQGIQVTVSSESKYGPPCPPCPAPEAAGGPSVFLFPPKPKDTLMISRTPEVTCVVVDVSQEDPEVQFNWYVDGVEVHNAKTKPREEQFNSTYRVVSVLTVLHQDWLNGKEYKCKVSNKGLPSSIEKTISKAKGQPREPQVCTLPPSQEEMTKNQVSLSCAVKGFYPSDIAVEWESNGQPENNYKTTPPVLDSDGSFFLVSRLTVDKSRWQEGNVFSCSVMHEALHNRFTQKSLSLSL
light: QAVVTQESALTTSPGETVTLTCRSSTGAVTTSNYANWVQEKPDHLFTGLIGGTNKRAPGVPARFSGSLIGDKAALTITGAQTEDEAIYFCALWYSNLWVFGGGTKVEIKRTVAAPSVFIFPPSDEQLKSGTASVVCLLNNFYPREAKVQWKVDNALQSGNSQESVTEQDSKDSTYSLSSTLTLSKADYEKHKVYACEVTHQGLSSPVTKSFNRGEC

BLI-Response (self-interaction signal) [2]: 0.07 nm
B2: HER2-CD3 bispecific antibody 504 (bispecific antibody, human IgG4 S228P, kappa, F234A L235A)
chain: QVQLVQSGGGLVQAGGSLRLSCAASGRTFSSYAMAWFRQAPGKEREFVAAISWSGANIYVADSVKGRFTISRDNAKDTVYLQMNSLKPEDTAVYYCAVKLGFAPVEERQYDYWGQGTQVTVSSESKYGPPCPPCPAPEAAGGPSVFLFPPKPKDTLMISRTPEVTCVVVDVSQEDPEVQFNWYVDGVEVHNAKTKPREEQFNSTYRVVSVLTVLHQDWLNGKEYKCKVSNKGLPSSIEKTISKAKGQPREPQVYTLPPCQEEMTKNQVSLWCLVKGFYPSDIAVEWESNGQPENNYKTTPPVLDSDGSFFLYSRLTVDKSRWQEGNVFSCSVMHEALHNHYTQKSLSLSL
heavy: B1 heavy with Y354C, C359S, W371S, L373A, Y412V, H440R, Y441F
light: B1 light
